According to publication PMC7617739, “Seo1p, a high-affinity, plasma membrane transporter of the γ-Glu-met dipeptide in yeasts and fungi” (The Journal of Biological Chemistry, 2025):

Substrate: CSCC[C@H](NC(=O)CC[C@H](N)C(=O)O)C(=O)O
Assay: cells, lysate or membranes

B1: Seo1p (Saccharomyces cerevisiae S288C) (protein)
chain: MYSIVKEIIVDPYKRLKWGFIPVKRQVEDLPDDLNSTEIVTISNSIQSHETAENFITTTSEKDQLHFETSSYSEHKDNVNVTRSYEYRDEADRPWWRFFDEQEYRINEKERSHNKWYSWFKQGTSFKEKKLLIKLDVLLAFYSCIAYWVKYLDTVNINNAYVSGMKEDLGFQGNDLVHTQVMYTVGNIIFQLPFLIYLNKLPLNYVLPSLDLCWSLLTVGAAYVNSVPHLKAIRFFIGAFEAPSYLAYQYLFGSFYKHDEMVRRSAFYYLGQYIGILSAGGIQSAVYSSLNGVNGLEGWRWNFIIDAIVSVVVGLIGFYSLPGDPYNCYSIFLTDDEIRLARKRLKENQTGKSDFETKVFDIKLWKTIFSDWKIYILTLWNIFCWNDSNVSSGAYLLWLKSLKRYSIPKLNQLSMITPGLGMVYLMLTGIIADKLHSRWFAIIFTQVFNIIGNSILAAWDVAEGAKWFAFMLQCFGWAMAPVLYSWQNDICRRDAQTRAITLVTMNIMAQSSTAWISVLVWKTEEAPRYLKGFTFTACSAFCLSIWTFVVLYFYKRDERNNAKKNGIVLYNSKHGVEKPTSKDVETLSVSDEK
  Km: 48 µM
